The supplement of paper PMC10567573

B1: IKZF1 (parent)
chain: YHSQDRYEFSSHITRGEHRFHMS

Variants of: B1
Experiment: protein stability index of a GFP-peptide fusion (GPS, HEK-293T) (PSI 1-6); higher = more stable
Conditions: c terminus: native
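Further: lentivirally expressed fusions sorted by FACS into six bins by GFP to DsRed ratio, PSI derived from sequencing read proportions per bin multiplied by bin number.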

Protein stability index, by site and new letter:
S10: P 2.08 | F 2.1 | Y 2 | W 3.17 | K 1.27 | R 1.9 | E 1.74
R15: D 2 | I 3.49 | L 2.12 | K 1.8 | C 2.69 | S 1.55 | M 1.47 | G 1.87 | V 1.82 | T 2.9 | P 1.42 | W 1.82 | Q 2.22
D5: R 1.61 | T 2.18 | I 2.41 | Y 2.05 | W 3.3 | M 3.27 | H 2.74 | S 1.79 | C 3.34 | P 2.04 | E 3 | F 2.55 | V 2.31 | N 1.84
R6: G 2.22 | Q 1.9 | H 1.8 | L 2.98 | T 1.8 | P 2.23 | D 2.49 | M 2.65 | K 2.64 | N 2.44 | W 2.83 | S 1.87 | Y 2.24
M22: W 1.65 | R 1.99 | I 2.48 | H 1.66 | V 2 | C 3.14 | D 1.94 | N 2.06 | A 2.58 | Y 1.56 | G 3.65 | S 2.03 | F 1.53 | P 2.01 | L 1.4 | T 2.06 | E 1.82 | Q 2.11
Q4: M 1.77 | P 1.94 | W 2.22 | H 2.21 | K 2.21 | S 2.42 | F 2.33 | Y 1.77 | N 1.89 | G 2.3 | V 2.23 | E 3.35 | R 1.94 | A 2.13
G16: Q 1.58 | H 1.56 | T 2.4 | A 1.76 | R 2.38 | W 1.51 | I 1.77 | S 1.5 | Y 4.64 | F 1.9 | L 1.53 | P 2.01 | M 2.85 | E 3.6 | K 2.27 | N 2.04
Y1: I 3.35 | T 3.5 | G 3.97 | S 4.05 | P 3.84 | H 3.76 | R 4.05 | V 3.57 | W 2.94 | A 3.73 | N 4.05 | Q 3.99 | C 3.03
H18: V 1.68 | K 2.22 | P 1.81 | W 2.34 | G 1.6 | C 2.04 | L 1.99 | T 1.92 | D 1.12 | R 1.82 | I 1.65 | M 2.75
S3: D 2.76 | V 2.15 | A 2.66 | H 2.14 | L 2.39 | Q 2.54 | K 2.33 | I 2.73 | T 2.13 | R 2.47 | E 2.56 | F 1.76 | W 2.61 | C 1.59 | Y 1.63 | N 1.61
H21: Y 1.76 | C 1.69 | S 1.89 | E 1.44 | R 2.88 | Q 2.22 | T 2.04 | A 2.43 | V 2.25 | G 2.11 | P 1.89 | W 1.81 | K 1.37 | N 2.27 | I 3.07
F9: D 1.98 | K 2.05 | M 2.44 | T 1.49 | V 2.65 | N 1.8 | P 1.73 | L 1.96 | H 2.04 | C 2.54 | W 3.1 | A 2.02 | S 3.12 | E 1.97 | R 1.67 | G 1.97
